# From publication PMC10705692, “Structural dynamics of GluK2 kainate receptors in apo and partial agonist bound states” (Research Square, 2023)
# B1: full-length rat GluK2 KAR, cryo-EM construct (GluK2 EM) (receptor, UniProt P42260 32-908, looked up)
# chain: TTHVLRFGGIFEYVESGPMGAEELAFRFAVNTINRNRTLLPNTTLTYDTQKINLYDSFEASKKACDQLSLGVAAIFGPSHSSSANAVQSICNALGVPHIQTRWKHQVSDNKDSFYVSLYPDFSSLSRAILDLVQFFKWKTVTVVYDDSTGLIRLQELIKAPSRYNLRLKIRQLPADTKDAKPLLKEMKRGKEFHVIFDCSHEMAAGILKQALAMGMMTEYYHYIFTTLDLFALDVEPYRYSGVNMTGFRILNTENTQVSSIIEKWSMERLQAPPKPDSGLLDGFMTTDAALMYDAVHVVSVAVQQFPQMTVSSLQCNRHKPWRFGTRFMSLIKEAHWEGLTGRITFNKTNGLRTDFDLDVISLKEEGLEKIGTWDPASGLNMTESQKGKPANITDSLSNRSLIVTTILEEPYVLFKKSDKPLYGNDRFEGYCIDLLRELSTILGFTYEIRLVEDGKYGAQDDVNGQWNGMVRELIDHKADLAVAPLAITYVREKVIDFSKPFMTLGISILYRKPNGTNPGVFSFLNPLSPDIWMYVLLAYLGVSVVLFVIARFSPYEWYNPHPSNPDSDVVENNFTLLNSFWFGVGALMQQGSELMPKALSTRIVGGIWWFFTLIIISSYTANLAAFLTVERMESPIDSADDLAKQTKIEYGAVEDGATMTFFKKSKISTYDKMWAFMSSRRQSVLVKSNEEGIQRVLTSDYAFLMESTTIEFVTQRNCNLTQIGGLIDSKGYGVGTPMGSPYRDKITIAILQLQEEGKLHMMKEKWWRGNGCPEEESKEASALGVQNIGGIFIVLAAGLVLSVFVAVGEFLYKSKKNAQLEKRSFCSAMVEELRMSLKCQRRLKHKPQAPVIVKTEEVINMHTFNDRRLPGKETMA
# modifications: N-glycosylation at Asn 67, 73, 275, 378, 412, 423, 430, 546 and 751 (LC-MS/MS of the purified protein)
# notes: Glutamate receptor ionotropic, kainate 2 (GluK2), rat, full length; RNA-edited at position 567 (I to V), with C576V and C595S; followed by a human rhinovirus 3C protease site and a Twin-Strep tag at the C-terminus; Homotetramer (subunits A-D); No cleavage of the 3C site is described; also called homomeric rat GluK2; GRIK2_RAT; source: Sf9 insect cells (baculovirus, EarlyBac), solubilised in DDM, …
# Biological target: the molecule itself
# Experiment: cryo-EM structure; purified GluK2 EM in DDM micelles without ligand (apo; residual glutamate washed out on Strep-Tactin), 50 mM Tris-Cl pH 8.0, 150 mM NaCl, 1 mM DDM, ~4 mg/ml; single-particle cryo-EM, C2 imposed, 3.0 Å
protein,measurement,value
B1,stoichiometry N,4
